Test results from US20220213196A1 (GRITSTONE BIO, published 2022).
Numbering of substitutions follows the chain as printed.

Columns and labels:
[1] = target: T1, HLA-A*01:01_… (G10) on cells (human); experiment: flow cytometry histogram, IgG at 30 µg/mL on HLA-A*01:01-transduced K562 cells pulsed with 50 µM …
T1 construct: also called G10-presenting K562 cells; Colo829

[2] = target: HLA-A*01:01_… (G2) on K562 cells (human); experiment: flow cytometry, HLA-A*01:01-transduced K562 cells pulsed with target peptide, IgG titration
[3] = target: T2, HLA-A*02:01_… (HLA-PEPTIDE target G8), recombinant soluble complex (human, UniProt P04439 25-297 at identity 0.94); P61769 21-119, enzymatically biotinylated (BirA) for screening and functional assays); experiment: BLI Octet, pHLA on streptavidin sensor, 1:1 fit
T2 construct: Also crystallised with Fab G8-P1C11

[4] = target: T2, HLA-A*02:01_… (HLA-PEPTIDE target G8), …; experiment: BLI (Octet), biotinylated pHLA on streptavidin sensors; printed under the Fab sensorgrams, the sheet does not say which format or fit gave the bivalent value
[5] = target: T2, HLA-A*02:01_… (HLA-PEPTIDE target G8), …; experiment: BLI (Octet), biotinylated pHLA on streptavidin sensors; printed under the Fab sensorgrams, the sheet does not say which format or fit gave the bivalent value [cont'd]
[6] = target: T3, HLA-B*35:01_… (HLA-PEPTIDE target G5), recombinant soluble complex (human, UniProt P01889 25-297 at identity 0.94); P61769 21-119, enzymatically biotinylated (BirA) for screening and functional assays); experiment: BLI Octet, pHLA on streptavidin sensor, 1:1 fit
[7] = target: T3, HLA-B*35:01_… (HLA-PEPTIDE target G5), …; experiment: BLI (Octet), biotinylated pHLA on streptavidin sensors; printed under the Fab sensorgrams, the sheet does not say which format or fit gave the bivalent value [cont'd]
[8] = target: HLA-A*01:01_… (HLA-PEPTIDE target G2), recombinant soluble complex (human, UniProt P04439-2 25-297; P61769 21-119, enzymatically biotinylated (BirA) for screening and functional assays); experiment: BLI Octet, pHLA on streptavidin sensor, 1:1 fit

B1: IgG G10-P1B07 (antibody, V domains shown)
VH: QVQLVQSGAEVKKPGASVKVSCKASGYTFTSYYMHWVRQAPGQGLEWMGIIHPGGGTTSYAQKFQGRVTMTRDTSTSTVYMELSSLRSEDTAVYYCARDKVYGDGFDPWGQGTLVTVSS
VL: DIQMTQSPSSLSASVGDRVTITCRASQSISRWLAWYQQKPGKAPKLLIFDASRLQSGVPSRFSGSGSGTDFTLTISSLQPEDFATYYCQQAEAFPYTFGQGTKVEIK
notes: IgG; also called R3G10-P1B07
- binding result [1]: binds

B2: IgG G2-P1H11 (antibody, V domains shown)
VH: QVQLVQSGAEVKKPGASVKVSCKASGYTFTNYYMHWVRQAPGQGLEWMGMINPSGGGTSYAQKFQGRVTMTRDTSTSTVYMELSSLRSEDTAVYYCARGNPWELRLDYWGQGTLVTVSS
VL: DIQMTQSPSSLSASVGDRVTITCQASQDISNYLNWYQQKPGKAPKLLIYAASSLQSGVPSRFSGSGSGTDFTLTISSLQPEDFATYYCQQYYSYPFTFGPGTKVDIK
- binding result [2]: binds

B3: Fab G8-P4F05 (Fab, V domains shown)
VH: QVQLVQSGAEVKKPGASVKVSCKASGYTFSNMYLHWVRQAPGQGLEWMGWINPNTGDTNYAQTFQGRVTMTRDTSTSTVYMELSSLRSEDTAVYYCARGLYGDYFLYYGMDVWGQGTKVTVSS
VL: B2 VL with Q24R, D28G, N34A, S53T, Y91S, Y94T, F96L, P100G, D105E
notes: Fab from HEK293; also called R3G8-P4F05
- Kd [3]: 984 nM
- koff [3]: 0.063 s⁻¹
- kon [3]: 64000 M⁻¹ s⁻¹
- Apparent KD (bivalent) [4]: 7.9 nM

B4: Fab G8-P1B03 (Fab, V domains shown)
VH: EVQLLESGGGLVQPGGSLRLSCAASGFTFSDYYMSWVRQAPGKGLEWVSGINWNGGSTGYADSVKGRFTISRDNSKNTLYLQMNSLRAEDTAVYYCARVEQGYDIYYYYYMDVWGKGTTVTVSS
VL: B2 VL with Q24R, D28S, N31S, A50K, Q55E, Y91S, Y94A, F96Y
notes: Fab from HEK293
- Kd [3]: 307 nM
- koff [3]: 0.0511 s⁻¹
- kon [3]: 167000 M⁻¹ s⁻¹
- Apparent KD (bivalent) [4]: 3.54 nM

B5: Fab G8-P5G08 (Fab, V domains shown)
VH: B3 VH with S30T, N31S, M32N, L34M, I51M, T55S, D57N, N59G, T63K, K118T
VL: not shown
notes: Fab from HEK293; also called R3G8-P5G08
- Kd [3]: 530 nM
- koff [3]: 0.0528 s⁻¹
- kon [3]: 99700 M⁻¹ s⁻¹
- Apparent KD (bivalent) [5]: 6.65 nM

B6: Fab G5-P1C12 (Fab, V domains shown)
VH: QVQLVQSGAEVKKPGSSVKVSCKASGGTFSNFGVSWLRQAPGQGLEWMGGIIPILGTANYAQKFQGRVTITADESTSTAYMELSSLRSEDTAVYYCATPTNSGYYGPYYYYGMDVWGQGTTVTVSS
VL: B1 VL with R31S, F49Y, D50A, R53T, A91S, E92Y, A93S, F94I, Y96L, Q100G
notes: Fab from HEK293
- Kd [6]: 85.9 nM
- koff [6]: 0.0158 s⁻¹
- Apparent KD (bivalent) [7]: 0.378 nM

B7: Fab G2-P2C06 (Fab, V domains shown)
VH: QVQLVQSGAEVKKPGASVKVSCKSSGYSFDSYVVNWVRQAPGQGLEWMGWINPNSGGTNYAQKFQGRVTMTRDTSTSTVYMELSSLRSEDTAVYYCARDWVLDYWGQGTLVTVSS
VL: B2 VL with Q24R, D28T, N31S, Y32W, N34A, Y91S, Y94T
notes: Fab
- Kd [8]: 30.6 nM
- koff [8]: 0.0348 s⁻¹
- kon [8]: 1.14e+06 M⁻¹ s⁻¹
